# Source: article PMC3079584
# Legend:
# [1] = target: She2p;She3p (Saccharomyces cerevisiae;Saccharomyces cerevisiae) (UniProt P36068+P38272); assay: EMSA; conditions: EMSA: 20 mM HEPES pH 7.8, 200 mM NaCl, 2 mM MgCl2, 2 mM DTT, 4% glycerol, 30 or 100 ug/ml yeast tRNA, 5 nM RNA, 20 C; filter binding: 20 mM HEPES pH 7.4-7.5 (7.)
# [2] = target: Full-length His-She3p (Saccharomyces cerevisiae) (UniProt P38272); assay: SPR; Biacore 3000, CM-5 chip, She3p amine-coupled, She2p flowed over, HNMD-buffer; steady state, Langmuir isotherm; duplicates
# Full-length His-She3p (Saccharomyces cerevisiae), sequence (P38272 whole entry): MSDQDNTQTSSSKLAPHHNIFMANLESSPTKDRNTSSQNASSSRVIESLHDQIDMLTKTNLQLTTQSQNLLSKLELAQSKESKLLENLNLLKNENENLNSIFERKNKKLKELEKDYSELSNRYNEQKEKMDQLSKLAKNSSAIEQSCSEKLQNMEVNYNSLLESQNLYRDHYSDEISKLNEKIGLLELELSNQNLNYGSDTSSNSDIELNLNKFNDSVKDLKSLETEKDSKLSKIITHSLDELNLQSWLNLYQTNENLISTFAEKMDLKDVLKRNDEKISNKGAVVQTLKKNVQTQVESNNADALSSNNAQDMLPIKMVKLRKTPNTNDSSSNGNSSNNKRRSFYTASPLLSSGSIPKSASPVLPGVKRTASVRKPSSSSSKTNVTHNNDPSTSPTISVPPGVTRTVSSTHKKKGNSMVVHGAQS
# She2p;She3p (Saccharomyces cerevisiae;Saccharomyces cerevisiae), sequence (P36068 whole entry, chain 1 of 2): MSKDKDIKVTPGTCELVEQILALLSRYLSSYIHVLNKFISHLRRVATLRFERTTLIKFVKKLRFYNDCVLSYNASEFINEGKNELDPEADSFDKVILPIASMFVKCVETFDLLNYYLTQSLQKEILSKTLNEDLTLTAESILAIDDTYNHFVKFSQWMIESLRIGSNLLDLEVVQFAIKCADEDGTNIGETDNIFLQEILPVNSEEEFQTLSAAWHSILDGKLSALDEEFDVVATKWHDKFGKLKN
# She2p;She3p (Saccharomyces cerevisiae;Saccharomyces cerevisiae), sequence (P38272 whole entry, chain 2 of 2): as the sequence (P38272 whole entry) above
Kd [2] [µM],Substance,Kd [1] [µM]
,HIV-1 TAR (length not stated),> 1.5
2,She2p (ΔC) (from UniProt P36068 1-240) (domain or fragment),
